This note sets out measurements from US20050003401, “Pfu replication accessory factors and methods of use” (Stratagene, published 2005).

Data set [1] deals with T1, RFA (replication factor A) (Pyrococcus furiosus).
T1 chain: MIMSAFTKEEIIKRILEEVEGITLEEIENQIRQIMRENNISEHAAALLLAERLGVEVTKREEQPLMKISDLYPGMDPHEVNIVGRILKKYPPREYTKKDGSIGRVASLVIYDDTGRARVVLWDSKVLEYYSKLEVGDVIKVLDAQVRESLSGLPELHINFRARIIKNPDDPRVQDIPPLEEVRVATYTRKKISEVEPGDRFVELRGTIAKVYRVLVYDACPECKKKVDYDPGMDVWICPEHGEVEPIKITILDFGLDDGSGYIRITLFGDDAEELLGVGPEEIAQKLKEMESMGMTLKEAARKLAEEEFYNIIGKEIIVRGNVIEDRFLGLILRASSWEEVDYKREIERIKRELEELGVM
The data set can be described thus: EMSA; partial shift; 95 C 10 min then 72 C 2 min. As to conditions: tags: N-terminal CBP. As to the method:
(§1) 50 ng of a 38-mer oligo was incubated with E. coli SSB (lane 1), water (lane 2), or P. furiosus RFA (lanes 3-7) in TE buffer (lanes 1-3), 1×cloned Pfu buffer (lane 4), 50 mM Tris pH 8.5, 25 mM KCl, 2 mM MgCl₂ (lane 5), 50 mM Tris pH 8.5, 25 mM KCl, 5 mM MgCl₂ (lane 6), or 50 mM Tris pH 8.5, 25 mM KCl, 2 mM ZnCl₂ (lane 7). Samples were incubated at 95° C. for 10 minutes, followed by 72° C. for 2 minutes prior to loading on a 4-20% acrylamide gradient gel in 1×TBE buffer. Bands were visualized by SYBR green staining and UV illumination.
(§2) To assess function, P. furiosus RFA was tested for single-stranded DNA binding activity in a gel shift assay (FIG. 18). […] The degree of migration of the oligo is related to the mass of the protein-DNA complex and the formation of protein multimers. E. coli SSB is known to form tetramers, but it is presently unknown whether P. furiosus RFA produces multimers as well.
In general terms: In EMSA bound probe runs differently from free probe, usually more slowly.

In data set [2] the target is SSB (single-stranded DNA binding protein) (Escherichia coli, UniProt P0AGE0 P0AGE0:2-178). The data set can be described thus: EMSA; TE buffer; 95 C 10 min then 72 C 2 min. As to conditions: tags: Stratagene Perfect Match; chain copies: 4. As to the method: as §1, §2
Chain of SSB (single-stranded DNA binding protein) (P0AGE0 2-178, one chain of several): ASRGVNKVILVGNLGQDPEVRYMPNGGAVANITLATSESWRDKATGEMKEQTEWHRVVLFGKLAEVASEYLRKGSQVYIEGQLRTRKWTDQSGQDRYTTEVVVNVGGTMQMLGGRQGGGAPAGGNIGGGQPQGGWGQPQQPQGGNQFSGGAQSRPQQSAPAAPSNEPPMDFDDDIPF

As for GGTTTTCCCAGTCACGACGTTGTAAAACGACGGCCAGT (ssDNA) [38-mer oligo], the binding result in data set [1] and in data set [2] was “binds” throughout.
